Data as given in patent publication US20070141048A1 (SYMPHOGEN A S, published 2007).

Molecular target: T1, Ovalbumin (UniProt P01012 2-386)
T1 sequence: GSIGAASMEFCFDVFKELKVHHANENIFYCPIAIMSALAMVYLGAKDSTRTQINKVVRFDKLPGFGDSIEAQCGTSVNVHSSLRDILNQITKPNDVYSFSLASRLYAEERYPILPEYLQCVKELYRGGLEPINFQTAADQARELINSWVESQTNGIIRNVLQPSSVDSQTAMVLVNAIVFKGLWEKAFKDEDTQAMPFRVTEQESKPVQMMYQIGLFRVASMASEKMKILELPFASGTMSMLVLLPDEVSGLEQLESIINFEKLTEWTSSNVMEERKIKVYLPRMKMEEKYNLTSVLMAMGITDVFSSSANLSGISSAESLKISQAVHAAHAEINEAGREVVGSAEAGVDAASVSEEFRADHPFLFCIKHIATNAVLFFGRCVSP
Assay: ELISA, periplasmic extract on coated Ovalbumin

B1: g060d07 (Fab, V domains shown)
VH: EVQLVQSGAEVKKPGTSVRVSCKTPGGYVFSWVRQAPGQGPEWMGGIITNFGTTNYARKFQGRITVTADKSTNTVYMDLSNLASEDTAVYYCARAPRGTSTIAARFNRYFFDSWGQGTLVTVS
VL: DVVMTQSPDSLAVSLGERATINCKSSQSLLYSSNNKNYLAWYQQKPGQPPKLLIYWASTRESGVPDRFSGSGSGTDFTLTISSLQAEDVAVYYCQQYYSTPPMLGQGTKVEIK
- binding result: no binding (tested: 10 µg/ml Ovalbumin coat)

B2: g060f04 (Fab, V domains shown)
VH: KVQLVQSGAEVKKPGTSVRVSCKTPGGYVFSWVRQAPGQGPEWMGGIITNFGTTNYARKFQGRITVTADKSTNTVYMDLSNLASEDTAVYYCARAPRGTSTIAARFNRYFFDSWGQGTLVTVS
VL: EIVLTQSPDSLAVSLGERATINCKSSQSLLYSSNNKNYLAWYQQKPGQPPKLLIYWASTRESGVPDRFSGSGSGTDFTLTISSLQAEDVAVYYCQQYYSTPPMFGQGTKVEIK
- binding result: no binding (tested: 10 µg/ml Ovalbumin coat)

B3: g060b07 (Fab, V domains shown)
VH: EVQLVESGAEVKKPGTSVRVSCKTSGGYVFSWVRQAPGQGPEWMGGIITSFGTTSYAQKFQGRVTITADKATNTVYMDLSDLTSEDTAIYYCAKAPRGTSTIAARFNRYFFDSWGQGTLVTVS
VL: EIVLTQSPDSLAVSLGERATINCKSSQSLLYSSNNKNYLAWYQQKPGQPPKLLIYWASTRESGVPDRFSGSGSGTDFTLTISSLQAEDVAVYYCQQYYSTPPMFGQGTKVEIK
- binding result: no binding (tested: 10 µg/ml Ovalbumin coat)

B4: g060e05 (Fab, V domains shown)
VH: QVQLVESGAEVKKPGSSVKVSCKSSGGYVFSWVRQAPGQGLEWMGGIISNFRTAEYARKFQGRVTMTADTSTNTIYMELTSLTSEDTAVYFCVSAPRDTSTIAARFNRYFFDTWGQGTLVTVS
VL: EIVLTQSPGTLSLSPGERATLSCRASRSVNSNNLAWYQQKPDQAPRLLMYGASSRATGIPDRFTGSGSGTDFTLTISRLEPEDFAVYYCHQYGASDNTFGQGTKLEIK
- binding result: no binding (tested: 10 µg/ml Ovalbumin coat)

B5: g060g09 (Fab, V domains shown)
VH: KVQLVQSGAEVKKPGSSVKVSCKSSGGYVFSWVRQAPGQGLEWMGGIISNFHTAEYAQKFQGRVTMTADTSTNTIYMELTSLTSEDTAVYFCVSAPRDTSTIAARFNRYFFDTWGQGTLVTVS
VL: EIVLTQSPGTLSLSPGERATLSCRASRSVYSNNLAWYQQKPDQAPRLLMYGASSRATGIPDRFTGSGSGTDFTLTISRLEPEDFAVYYCHQYGASDNTFGQGTKLEIK
- binding result: no binding (tested: 10 µg/ml Ovalbumin coat)

B6: g060c03 (Fab, V domains shown)
VH: KVQLVESGGGLVKPGGSLRLSCAASGSSFSNNNMNWVRQTPGKGLEWVASISFGSHYISYADSVKGRFTISRDNARNAVYLQMNSLRVEDTAVYYCTRCRGGTRTYYYMDVWGKGTLVTVS
VL: EIVMTQSPGTLALSPGDRATLSCGASQSVFGDFLAWYQHKPGQAPRLLIYGASTRATGIPDRFSGSGAGTDFTLTISRLEPEDFAVYFCQQYGDSVFTFGQGTKLEIK
- binding result: no binding (tested: 10 µg/ml Ovalbumin coat)

B7: g060b12 (Fab, V domains shown)
VH: QVQLVQSGGGLVKPGGSLRLSCAASGFSFSNNNMNWVRQTPGKGLEWVASISFGSHYISYADSVKGRFTISRDNARNAVYLQMNSLRVEDTAVYYCTRCRGGTRTYYYMDVWGKGTLVTVS
VL: EIVLTQSPGTLALSPGDRATLSCGASQSVFGDFLAWYQHKPGQAPRLLIYGASTRATGIPDRFSGSGAGTDFTLTISRLEPEDFAVYFCQQYGDSVFTFGQGTKLGIK
- binding result: no binding (tested: 10 µg/ml Ovalbumin coat)

B8: g060d08 (Fab, V domains shown)
VH: KVQLVESGGGLVKPGGSLRLSCAASGFSFSNNNMNWVRQTPGKGLEWVASISFGSHYISYADSVKGRFTISRDNARNAVYLQMNSLRVEDTAVYYCTRCRGGTRTYYYMDVWGKGTMVTVS
VL: DVVMTQSPGTLALSPGDRATLSCGASQSVFGDFLAWYQHKPGQAPRLLIYVASTRATGIPDRFSGSGAGTDFTLTISRLEPEDFAVYFCQQYGDSVFTFGQGTKLEIR
- binding result: no binding (tested: 10 µg/ml Ovalbumin coat)

B9: g060f06 (Fab, V domains shown)
VH: QVQLQQSGGGLVKPGGSLRLSCAASGFSFSNNNMNWVRQTPGKGLEWVASISFGSHYISYADSVKGRFTISRDNARNAVYLQMNSLRVEDTAVYYCTRCRGGTRTYYYMDVWGKGTLVTVS
VL: EIVMTQSPGTLALSPGDRATLSCGASQSVFGDFLAWYQHKPGQAPRPLIYGASTRATGIPDRFSGSGAGTDFTLTISRLEPEDFAVYFCQQYGDSVFTFGQGTKLEIK
- binding result: no binding (tested: 10 µg/ml Ovalbumin coat)

B10: g060f02 (Fab, V domains shown)
VH: KVQLVQSGAEVKKPGTSVRVSCKTSGGYVFSWVRQAPGHGPEWMGGIITNFGTATYAQKFQGRVSITADTSTNTFYMDLNNLKSDDTAVYYCASAPRDTSTIAARFNRYFFDFWGPGTLVTVS
VL: DVVMTQSPGTLSLSPGERATLSCRASQSVNSNNLAWYQQKPGQAPRLLVSGATNRATDIPDRFSGSGSGTDFTLTISRLEPEDFAVYYCHQYGSSENTFGQGTKLEIR
- binding result: no binding (tested: 10 µg/ml Ovalbumin coat)

B11: g060c04 (Fab, V domains shown)
VH: QMQLVQSGAEVKKPGSSVKVSCQSSGGPPKSYTLSWVRQAPGQGPEWMGGIILIFGPPNYAQKFQDRLTITADKSTNTVYMELSSLRSDDTAMYYCVTAPDDTGTILARHNRYYFDSWGQGTLVTVS
VL: EIVLTQSPGTLSLSPGQRATLSCRASQSVNRDYLAWYQQKPGQAPRLLIYGASSRATGIPDRFSGSGSGTDFTLTISRLERDDFAVYFCHQYGSSPNTFGQGTKLEIK
- binding result: no binding (tested: 10 µg/ml Ovalbumin coat)

B12: g060g07 (Fab, V domains shown)
VH: QVQLQQSGPGLVKPSETLPLTCTVSGGSFSTYYWSWIRQSPEKGLEWIGYIQNSVNTNYNPSLKSRVIISVDTSNNQFSLKLRSVTAADTAVYYCARVSGWGPRGGIYFDYWGQGTLVTVS
VL: DIQMTQSPSSLSASVSDRVTITCRASQSINKFLNWYQQKPGKAPQLLIYAATNLQSGVPSRFSGSGSGTDFTLTISSLQTEDFATYYCQQSYDMPRTFGQGTKVEIK
- binding result: no binding (tested: 10 µg/ml Ovalbumin coat)

B13: g060h11 (Fab, V domains shown)
VH: QVTLKESGPTVVKPTQTLTLTCSLSGFALGTTGVAVGWIRQPPGKALEWLGLIDWNDDRRYRPSLKTRLTITQDMSRNQVVLRLTNLDPLDTGTYFCARSVVPATRAFDFWGQGTLVTVS
VL: DIQMTQSSSTLSASVGDRVTITCRASQNINIWLAWYQQKAGKAPKLLIYKASTLERGVPSRFSGSGSGTEFTLTITGLRPDDFGSYYCQHYDGNSLTFGQGTRVDIQ
- binding result: no binding (tested: 10 µg/ml Ovalbumin coat)

B14: g060b06 (Fab, V domains shown)
VH: QVQLQESGGGVVQPGTSLRLSCVVSGFTFRTYGMNWVRQAPGKVLEWLAFVSSDGSDEFYADSVKGRFTVSRDNSKSTLFLKMNSLRADDTAVYYCARDRGAQITLFGAPLIRPSSFDSWGQGTLVTVS
VL: EIVLTQSPSSLSASVGDRITITCQASQDITNYLNWYQQKPGKAPKLLIYDASNLQPGVPSRFSGSRSGTDFTFTISSLRPEDIATYYCQQYDGPVLTFGGGTKVEIK
- binding result: no binding (tested: 10 µg/ml Ovalbumin coat)

B15: g060a04 (Fab, V domains shown)
VH: KVQLVESGGGVVQPGTSLRLSCVVSGFTFRTYGMNWVRQAPGKGLEWLAFLSSDGSDEFYADSVKGRFTVSRDNSKSTLFLKMNSLRPDDTAVYYCARDRGAQITLFGAPLIRPSSFDSWGQGTLVTVS
VL: DVVMTQSPSSLSASVGDRVTITCQASQDITNYLNWYQQKPGKAPKLLIYDASNLQPGVPSRFSGSGSVTDFTFTISSLRPEDIATYYCQQYDGPVLTFGGGTKVEIK
- binding result: no binding (tested: 10 µg/ml Ovalbumin coat)

B16: g060b10 (Fab, V domains shown)
VH: KVQLVESGAEVKKPGATVRVSCKASGYRFNDYCISWVRQAPGQGLEWMGWINGNNADTFYAPKLQGRVTMSTDTSTSTAYMELRNLRSDDTAVYFCARDRGRITLFGEVILRAGWFDSWGQGTLVTVS
VL: EIVMTQSPSSLSASVGDRVTITCQASQDISKYLNWYQQKPGRAPKLLIYEASNLETGVPPRFSGSGSGTHFTFTITGLQPEDIATYYCQQCDSLPPVFGQGTKLEVK
- binding result: no binding (tested: 10 µg/ml Ovalbumin coat)
